# Laboratory results from patent US20240209099A1 (SUZHOU TRANSCENTA THERAPEUTICS, published 2024).
# Residue numbers refer to the chain shown, from its start.
# T1: Recombinant Rhesus macaque VEGFR2/KDR Protein, His tag (rhesus macaque)
# T1 construct: Expressed in HEK293, bought from ACRO Biosystems; also called rhesus VEGFR2-his; rhesus VEGFR2
# T1 chain: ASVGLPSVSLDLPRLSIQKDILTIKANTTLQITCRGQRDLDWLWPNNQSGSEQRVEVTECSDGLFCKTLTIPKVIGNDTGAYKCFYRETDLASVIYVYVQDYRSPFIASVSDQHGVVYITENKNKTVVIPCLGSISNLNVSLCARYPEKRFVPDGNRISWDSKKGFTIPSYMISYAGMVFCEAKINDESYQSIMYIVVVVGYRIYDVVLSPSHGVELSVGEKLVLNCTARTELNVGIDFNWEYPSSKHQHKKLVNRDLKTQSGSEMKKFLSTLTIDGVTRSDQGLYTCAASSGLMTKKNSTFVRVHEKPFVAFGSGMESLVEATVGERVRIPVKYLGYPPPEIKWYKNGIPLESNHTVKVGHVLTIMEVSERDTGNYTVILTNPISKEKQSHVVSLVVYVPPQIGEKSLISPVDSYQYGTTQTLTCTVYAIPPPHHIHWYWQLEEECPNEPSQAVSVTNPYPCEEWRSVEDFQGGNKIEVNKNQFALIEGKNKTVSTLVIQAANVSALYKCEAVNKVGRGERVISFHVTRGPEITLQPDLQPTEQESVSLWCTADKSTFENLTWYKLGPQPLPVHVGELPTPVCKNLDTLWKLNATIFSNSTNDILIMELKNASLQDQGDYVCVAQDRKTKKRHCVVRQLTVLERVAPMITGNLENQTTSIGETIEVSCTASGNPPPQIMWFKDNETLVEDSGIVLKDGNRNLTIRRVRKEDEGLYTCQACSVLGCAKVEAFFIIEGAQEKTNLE
# T2: human VEGFR3 protein (human, UniProt P35916 25-776)
# T2 construct: also called Sino Biological 10806-H08H
# T2 sequence (looked up): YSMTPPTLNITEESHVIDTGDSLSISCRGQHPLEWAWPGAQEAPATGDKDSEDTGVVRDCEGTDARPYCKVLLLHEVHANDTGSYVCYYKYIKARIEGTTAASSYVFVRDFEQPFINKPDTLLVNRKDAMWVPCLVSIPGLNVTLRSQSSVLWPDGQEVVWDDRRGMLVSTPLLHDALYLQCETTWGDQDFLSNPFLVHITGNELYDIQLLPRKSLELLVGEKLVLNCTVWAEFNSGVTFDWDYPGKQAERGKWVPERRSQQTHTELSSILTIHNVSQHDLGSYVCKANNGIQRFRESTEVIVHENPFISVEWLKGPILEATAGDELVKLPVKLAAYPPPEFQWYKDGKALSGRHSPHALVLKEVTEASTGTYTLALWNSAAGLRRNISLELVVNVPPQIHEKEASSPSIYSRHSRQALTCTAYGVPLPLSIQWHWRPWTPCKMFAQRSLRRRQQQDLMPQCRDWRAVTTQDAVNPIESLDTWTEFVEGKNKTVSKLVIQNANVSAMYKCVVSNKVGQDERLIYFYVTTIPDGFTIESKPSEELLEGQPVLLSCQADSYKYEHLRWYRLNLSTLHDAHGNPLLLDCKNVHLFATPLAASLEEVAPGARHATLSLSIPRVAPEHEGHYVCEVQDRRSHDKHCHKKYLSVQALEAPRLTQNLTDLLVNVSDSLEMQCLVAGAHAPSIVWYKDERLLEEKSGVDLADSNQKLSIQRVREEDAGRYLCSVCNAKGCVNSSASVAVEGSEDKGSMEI
# B1: 048 (mouse hybridoma antibody) (antibody, V domains shown)
# VH: EVQLVESGGDLVKPGGSLKLSCAASGFTFSMYGMSWVRQTPDKRLEWVASISIGGSYTYYADSVEGRFTISRENAKNTLFLQMNSLKSEDTALYYCAREMDGNYDYWGHGTTLTVSS
# VL: DVMITQDELSNPVTFGESVSISCRSSKSLLYKDGKTYLNWFLQRPGQSPQLLIYLMSTRASGVSDRFSGSGSGTDFTLEISRVKAEDVGIYYCQQLVEYPFTFGSGTKLEIK
# notes: Mouse antibody purified from hybridoma; also called mAb048; 5G4
# B2: 48-H3L1 (humanized Mab48) (antibody, human IgG1, V domains shown)
# VH: B1 VH with D10G, K19R, T40A, D42G, E65K, E73D, F80Y, K87R, S88A, L93V
# VL: B1 VL with V2I, M3V, N11L, E79K, K84E
# notes: also called 48-H3L1 (CHO)
# Assays:
# [1] = biological target: T3, Recombinant Human VEGFR2/KDR Protein, His tag (hVEGFR2-his) (human, UniProt P35968 20-764); assay: competition ELISA: hVEGFR2-his coated (1 ug/ml), antibody titrated, then 0.3 ug/ml hVEGF-A added and bound VEGF-A detected; blocked ligand hVEGF-A
# T3 construct: Expressed in HEK293, bought from ACRO Biosystems; also called human VEGFR2-his; Human VEGFR2/KDR-His
# Protocol: High-binding clear polystyrene 96 well plates were coated with 100 μl/well of 1 μg/ml hVEGFR2-his overnight at 4° C. After washing and blocking, serial diluted antibodies (from 10 μg/ml to 0.0006 μg/ml) were added and incubate for 1 hour at RT. 0.3 μg/ml hVEGF-A (Acrobiosystem, Cat #VE5-H4210) were added and incubated for 2 hour at RT. Then 100 μl/well of 0.25 μg/ml Biotinylated Rabbit Anti-human VEGF-A (Peprotech, Cat #400-P10Bt) was then added for detecting bound VEGF-A. Then 100 μl/well of a solution of HRP conjugated Neutravidin antibody (Pierce, Cat #31001) and TMB were added sequentially. Finally, reaction was terminated using 0.64M H₂SO₄ and plates were read at 450 nm.
# [2] = biological target: T3, Recombinant Human VEGFR2/KDR Protein, …; assay: SPR (Biacore), antibody captured by anti-Fc, antigen 2.5-80 nM
# Protocol: A CM5 sensor chip was activated in each flow cell by 7-min injection (10 μl/min) of freshly prepared 1:1 50 mM N-hydroxysuccinimide (NHS): 200 mM 1-ethyl-3-(3-dimethylaminopropyl)-carbodiimide (EDC). Then anti-human Fc antibody (GE Healthcare) in a concentration of 10 μg/ml in 10 mM sodium acetate buffer PH 5.0 was injected onto the activated chip at 10 μl/min (HBS-EP running buffer: 10 mM HEPES, 150 mM NaCl, 3.4 mM EDTA, 0.005% surfactant P20, pH 7.4). The remaining active coupling sites were blocked by 7 min injection of 1M ethanolamine at 10 μl/min. The immobilization level of each flow cell is ˜9000RU. Antibodies were captured in FC2 by anti-human Fc IgG or anti-mouse Fc (GE Healthcare) to 200˜300RU. FC1 was used as the reference cell. Antigen was injected at varying concentrations (2.5 nM, 5 nM, 10 nM, 20 nM, 40 nM and 80 nM) after capture of antibody. The association time for antibody binding antigen is 180s. Surface Regeneration condition is 120s at 10 μl/min in Gly pH1.5. The signals with captured antibody subtracted from those without captured antibody were calculated with Biacore X100 evaluation software ver. 2.0 (Biacore).
# [3] = biological target: T4, human VEGFR2 on HUVEC cells (human, UniProt P35968 20-1356); assay: flow cytometry on HUVEC cells, percent shifted cells (Shift%), anti-mouse IgG-PE
# T4 construct: also called hVEGFR2 on HUVEC
# Protocol: Log phase HUVEC cells were collected, counted and resuspended in FACS buffer (5% BSA+PBS). 2×10∧5 cells were added to each tube and then washed once with PBS (1500 rpm, 5 mins, RT). Then […] serial diluted VEGFR2 antibodies purified from hybridoma supernatant in FACS buffer were added into corresponding tubes and were incubated at 4° C. for 1 hr. The cells were then washed twice with 1 ml PBS, followed by adding 100 μl/tube of 2nd antibody (1:400 anti-mIgG (H+L)-PE, Cell signaling #8887) in FACS buffer. The cells were incubated at 4° C. for 0.5 hr and then washed twice with PBS, followed by resuspending cells in 600 μl PBS for each sample. The cells were then transferred into FACS tube and the bindings of the antibodies to the cells were detected using flow cytometry (BD Accuri C6) (see FIG. 3).
# The percentage of positive binding cells was calculated and fit by Graphpad Prism Software.
# [4] = biological target: T3, Recombinant Human VEGFR2/KDR Protein, …; assay: competition ELISA on coated hVEGFR2-his: hybridoma antibody titrated against 100 ng/ml chimeric 002C, anti-human IgG Fc-HRP
# [5] = biological target: T3, Recombinant Human VEGFR2/KDR Protein, …; assay: ELISA, hVEGFR2-his coated
# Protocol: Same protocol of Example 2 antibody screening by ELISA assay. Briefly, 0.5 μg/ml hVEGFR2-his was coated and serially diluted purified antibodies would bind to coated antigen. Using HRP conjugated goat anti-mouse Fc antibody could detect binding signals of each antibody.
# The hybridoma antibodies have similar affinity to human.
# [6] = biological target: T3, Recombinant Human VEGFR2/KDR Protein, …; assay: competition ELISA on coated hVEGFR2-his: hybridoma antibody titrated against 100 ng/ml chimeric 054C, anti-human IgG Fc-HRP
# [7] = biological target: T4, human VEGFR2 on HUVEC cells; assay: flow cytometry on HUVEC cells, MFI, anti-human IgG (H+L)-PE
# Protocol: Same methods with Example 11. Briefly, Log phase HUVEC cells were collected and added to each tube. Then 100 μl/tube serial diluted humanized antibodies in FACS buffer were added and kept at 4° C. for 1 hr. Binding of antibodies to HUVEC was detected by PE signal of the 2nd antibody (anti-hIgG (H+L)-PE), which was added after the 1st antibodies. (see FIG. 15).
# [8] = biological target: T3, Recombinant Human VEGFR2/KDR Protein, …; assay: ELISA, human VEGFR2-his coated, anti-human Fc-HRP; antibody made in CHO cells
# [9] = biological target: T3, Recombinant Human VEGFR2/KDR Protein, …; assay: competition ELISA: VEGF-A coated (0.25 ug/ml), antibody titrated together with 1 ug/ml human VEGFR2, detection with mouse anti-VEGFR2 serum and anti-mouse Fc-HRP; blocked ligand VEGF-A
# Protocol: (§1) For this assay, 0.25 μg/ml VEGF-A was coated on ELISA plate before a mixture of chimeric antibodies and VEGFR2 were added. To detect free VEGF-A (not bind to VEGFR2), 1:1000 diluted mouse serum (mouse previous immunized with human VEGFR2) were added and HRP conjugated goat anti-mouse Fc antibody was used as secondary antibody.
# (§2) Same protocol of Example 10. Briefly, 0.25 μg/ml VEGF-A was coated overnight at 4° C. After blocking, serial diluted 54-H2L1, 48-H3L1, Ramucirumab and 1 μg/ml human VEGFR2 or rhesus VEGFR2 were added at the same time for 2 hour-incubation. After wash, mouse serum containing polyclone VEGFR2 antibody and HRP conjugated goat anti-mouse Fc antibody were added for detection of free VEGF-A coated on the plates (see FIGS. 13A and 13B).
# [10] = biological target: T3, Recombinant Human VEGFR2/KDR Protein, …; assay: ELISA, hVEGFR2-his coated, anti-human Fc-HRP; antibody made in 293T cells
# Protocol: Same protocol of Example 4 except using HRP conjugated goat anti-human Fc antibody as secondary antibody. Binding to hVEGFR2-his and rhesus VEGFR2-his (Acrobiosystems, Cat #VE2-C52H3) were also analyzed head-to-head.
# Same protocol of Example 9.
# [11] = biological target: T1, Recombinant Rhesus macaque VEGFR2/KDR …; assay: competition ELISA: VEGF-A coated (0.25 ug/ml), antibody titrated together with 1 ug/ml rhesus VEGFR2, detection with mouse anti-VEGFR2 serum and anti-mouse Fc-HRP; blocked ligand VEGF-A
# Protocol: as §1, §2
# [12] = biological target: T1, Recombinant Rhesus macaque VEGFR2/KDR …; assay: ELISA, rhesus VEGFR2-his coated, anti-human Fc-HRP; antibody made in CHO cells
# human VEGFR3 protein = biological target: T2, human VEGFR3 protein; assay: ELISA, 1 µg/ml antigen coated, 1 µg/ml antibody
# Protocol: (§3) Briefly, 1 μg/ml human VEGFR1 (Sino Biological, cat #10136-H08H), VEGFR2 (Acrobiosystem, cat #KDR-H5227) and VEGFR3 (Sino Biological, cat #10806-H08H) protein were coated overnight at 4° C. 1 μg/ml humanized antibodies (48-H3L1 and 54-H2L1, produced in CHO cells or Ramucirumab from Eli Lilly Germany, lot #20150819) were added for binding to coated antigen. Secondary antibody HRP conjugated goat anti-human Fc antibody were added for detection of binding signal.
# human VEGFR1 protein = biological target: T5, human VEGFR1 protein (human, UniProt P17948 27-756); assay: ELISA, 1 µg/ml antigen coated, 1 µg/ml antibody
# T5 construct: also called Sino Biological 10136-H08H
# T5 sequence (P17948 27-756 limits assumed): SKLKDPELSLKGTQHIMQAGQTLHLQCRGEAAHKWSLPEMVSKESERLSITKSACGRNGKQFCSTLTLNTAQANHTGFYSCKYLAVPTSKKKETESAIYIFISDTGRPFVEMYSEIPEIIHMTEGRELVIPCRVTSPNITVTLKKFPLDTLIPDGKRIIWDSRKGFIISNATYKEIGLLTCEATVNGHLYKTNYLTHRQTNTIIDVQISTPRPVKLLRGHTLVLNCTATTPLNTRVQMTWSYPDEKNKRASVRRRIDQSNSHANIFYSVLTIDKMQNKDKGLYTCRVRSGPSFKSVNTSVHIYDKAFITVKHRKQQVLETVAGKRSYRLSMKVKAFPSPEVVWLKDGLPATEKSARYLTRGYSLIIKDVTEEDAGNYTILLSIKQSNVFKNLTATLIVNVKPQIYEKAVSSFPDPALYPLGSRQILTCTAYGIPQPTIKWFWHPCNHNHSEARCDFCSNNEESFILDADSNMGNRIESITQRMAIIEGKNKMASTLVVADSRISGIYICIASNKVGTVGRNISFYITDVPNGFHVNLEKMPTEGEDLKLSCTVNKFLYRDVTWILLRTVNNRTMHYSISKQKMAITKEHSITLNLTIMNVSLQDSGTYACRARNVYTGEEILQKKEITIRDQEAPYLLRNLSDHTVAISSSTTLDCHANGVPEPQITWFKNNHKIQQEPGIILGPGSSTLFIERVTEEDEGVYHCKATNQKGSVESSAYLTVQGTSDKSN
# Protocol: as §3
Binder,IC50 [1] [µg/mL],Kd [2] [pM],koff [2] [s⁻¹],kon [2] [M⁻¹ s⁻¹],EC50 [3] [µg/mL],IC50 (read off the curve) [4] [µg/mL],EC50 [5] [µg/mL],IC50 (read off the curve) [6] [µg/mL],EC50 (read off the curve) [7] [µg/mL],EC50 [8] [µg/mL],IC50 [9] [µg/mL],EC50 [10] [µg/mL],IC50 [11] [µg/mL],EC50 [12] [µg/mL],binding result (human VEGFR3 protein),binding result (human VEGFR1 protein)
B1,0.0416,< 1,< 1e-07,1.14e+06,0.024,~0.07,0.0232,~0.2,,,,,,,,
B2,,,,,,,,,~0.2,0.00899,0.727,0.0205,0.833,0.00864,no binding (tested: 1 µg/ml),no binding (tested: 1 µg/ml)
